From PMC5627276

Key:
[1] = biological target: bRSV F 391-2 DS-Cav1 (bovine respiratory syncytial virus, strain 391-2 | bacteriophage T4); test: SEC; after nickel and Strep-Tactin affinity columns and cleavage of the C-terminal affinity tags; SEC in PBS
[2] = biological target: bRSV F 391-2 DS-Cav1 (bovine respiratory syncytial virus, strain 391-2 | bacteriophage T4); test: negative stain EM; about 0.01 mg/ml, 10 mM HEPES pH 7.0, 150 mM KCl, 0.75% uranyl formate; reference-free 2D class averaging
[3] = biological target: bRSV F RB94 DS-Cav1 (bovine respiratory syncytial virus, strain RB94 | bacteriophage T4); test: SEC; after nickel and Strep-Tactin affinity columns and cleavage of the C-terminal affinity tags; SEC in PBS
[4] = biological target: bRSV F RB94 DS-Cav1 (bovine respiratory syncytial virus, strain RB94 | bacteriophage T4); test: negative stain EM; about 0.01 mg/ml, 10 mM HEPES pH 7.0, 150 mM KCl, 0.75% uranyl formate; reference-free 2D class averaging
[5] = biological target: bRSV F DS2-v35 (ATue51908 sc9-10 DS-Cav1 A149C Y458C) (bovine respiratory syncytial virus, strain ATue51908 | bacteriophage T4); test: SEC; after nickel and Strep-Tactin affinity columns and cleavage of the C-terminal affinity tags; SEC in PBS
[6] = biological target: bRSV F DS2-v35 (ATue51908 sc9-10 DS-Cav1 A149C Y458C) (bovine respiratory syncytial virus, strain ATue51908 | bacteriophage T4); test: negative stain EM; about 0.01 mg/ml, 10 mM HEPES pH 7.0, 150 mM KCl, 0.75% uranyl formate; reference-free 2D class averaging
[7] = biological target: bRSV F DS2-v33 (391-2 sc9-10 DS-Cav1 Q98C Q361C) (bovine respiratory syncytial virus, strain 391-2 | bacteriophage T4); test: SEC; after nickel and Strep-Tactin affinity columns and cleavage of the C-terminal affinity tags; SEC in PBS
[8] = biological target: bRSV F DS2-v33 (391-2 sc9-10 DS-Cav1 Q98C Q361C) (bovine respiratory syncytial virus, strain 391-2 | bacteriophage T4); test: negative stain EM; about 0.01 mg/ml, 10 mM HEPES pH 7.0, 150 mM KCl, 0.75% uranyl formate; reference-free 2D class averaging
[9] = biological target: bRSV F DS2-v1 (391-2 sc9 DS-Cav1 Q98C Q361C) (bovine respiratory syncytial virus, strain 391-2 | bacteriophage T4); test: SEC; after nickel and Strep-Tactin affinity columns and cleavage of the C-terminal affinity tags; SEC in PBS
[10] = biological target: bRSV F DS2-v1 (391-2 sc9 DS-Cav1 Q98C Q361C) (bovine respiratory syncytial virus, strain 391-2 | bacteriophage T4); test: negative stain EM; about 0.01 mg/ml, 10 mM HEPES pH 7.0, 150 mM KCl, 0.75% uranyl formate; reference-free 2D class averaging
[11] = biological target: bRSV F ATue51908 DS-Cav1 (bovine respiratory syncytial virus, strain ATue51908 | bacteriophage T4); test: SEC; after nickel and Strep-Tactin affinity columns and cleavage of the C-terminal affinity tags; SEC in PBS
[12] = biological target: bRSV F ATue51908 DS-Cav1 (bovine respiratory syncytial virus, strain ATue51908 | bacteriophage T4); test: negative stain EM; about 0.01 mg/ml, 10 mM HEPES pH 7.0, 150 mM KCl, 0.75% uranyl formate; reference-free 2D class averaging

Substance “bRSV F 391-2 DS-Cav1 (domain or fragment)” has a stoichiometry N [1] of 3 and a stoichiometry N [2] of 3.
For “bRSV F RB94 DS-Cav1 (domain or fragment)”, the stoichiometry N [3] was 3 and the stoichiometry N [4] was 3.
For “bRSV F DS2-v35 (ATue51908 sc9-10 DS-Cav1 A149C Y458C) (domain or fragment)”, the stoichiometry N [5] was 3 and the stoichiometry N [6] was 3.
With “bRSV F DS2-v33 (391-2 sc9-10 DS-Cav1 Q98C Q361C) (domain or fragment)” the stoichiometry N [7] was 3 and the stoichiometry N [8] was 3.
Substance “bRSV F DS2-v1 (391-2 sc9 DS-Cav1 Q98C Q361C) (domain or fragment)” has a stoichiometry N [9] of 3 and a stoichiometry N [10] of 3.
In the case of “bRSV F ATue51908 DS-Cav1 (domain or fragment)”, the stoichiometry N [11] is reported as 3 and the stoichiometry N [12] is reported as 3.
